Molecular target: Calmodulin (CaM), chicken, recombinant (chicken, UniProt P62149 2-149)
Test: circular dichroism titration; various amounts of CaNp added to a fixed amount of CaM; far-UV CD; 100 mM KCl, 2 mM CaCl2, pH 6.5
Conditions: both partners purified

- stoichiometry N: 1
B1: CaM-binding domain (target peptide) of calcineurin A, residues 391-414 (CaNp) (peptide)
peptide: ARKEVIRNKIRAIGKMARVFSVLR
notes: CaM target domain of the calcineurin catalytic subunit (CaN-A) α-isoform, residue 391-414; 13C,15N-labelled or unlabelled in the NMR samples; also called target peptide of CaN; not shown: CaM with factor Xa cleavage site IEGR (CaM-CaNp hybrid molecule), N-terminal, cleaved
